Measured values: patent US20220213196A1 (GRITSTONE BIO, published 2022)
Changes are numbered by the printed parent chain.

B1: scFv G8-P1A03 (scFv, V domains shown)
VH: QVQLVQSGAEVKKPGASVKVSCKASGGTFSRSAITWVRQAPGQGLEWMGWINPNSGATNYAQKFQGRVTMTRDTSTSTVYMELSSLRSEDTAVYYCARDDYGDYVAYFQHWGQGTLVTVSS
VL: DIQMTQSPSSLSASVGDRVTITCRASQSITSYLNWYQQKPGKAPKLLIYDASNLETGVPSRFSGSGSGTDFTLTISSLQPEDFATYYCQQNYNSVTFGQGTKLEIK
B2: scFv G8-P1A04 (scFv, V domains shown)
VH: QVQLVQSGAEVKKPGASVKVSCKASGYPFIGQYLHWVRQAPGQGLEWMGIINPSGDSATYAQKFQGRVTMTRDTSTSTVYMELSSLRSEDTAVYYCARDLSYYYGMDVWGQGTTVTVSS
VL: DIQMTQSPSSLSASVGDRVTITCWASQGISSYLAWYQQKPGKAPKLLIYAASSLQSGVPSRFSGSGSGTDFTLTISSLQPEDFATYYCQQSYNTPWTFGPGTKVDIK
B3: scFv G8-P1A06 (scFv, V domains shown)
VH: QVQLVQSGAEVKKPGASVKVSCKASGYTFTNYYMHWVRQAPGQGLEWMGWMNPIGGGTGYAQKFQGRVTMTRDTSTSTVYMELSSLRSEDTAVYYCARVYDFWSVLSGFDIWGQGTLVTVSS
VL: DIQMTQSPSSLSASVGDRVTITCRASQAISNSLAWYQQKPGKAPKLLIYAASTLQSGVPSRFSGSGSGTDFTLTISSLQPEDFATYYCGQSYSTPPTFGQGTKLEIK
B4: scFv G8-P1B03 (scFv, V domains shown)
VH: EVQLLESGGGLVQPGGSLRLSCAASGFTFSDYYMSWVRQAPGKGLEWVSGINWNGGSTGYADSVKGRFTISRDNSKNTLYLQMNSLRAEDTAVYYCARVEQGYDIYYYYYMDVWGKGTTVTVSS
VL: B2 VL with W24R, G28S, A34N, A50K, Q55E, N93S, T94A, W96Y
B5: scFv G8-P1C11 (scFv, V domains shown)
VH: QVQLVQSGAEVKKPGASVKVSCKASGGTLSSYPINWVRQAPGQGLEWMGWISTYSGHADYAQKLQGRVTMTRDTSTSTVYMELSSLRSEDTAVYYCARSYDYGDYLNFDYWGQGTLVTVSS
VL: B2 VL with W24Q, G28D, S31N, A34N, N93S, T94I, W96P, P100G
B6: scFv G8-P1D02 (scFv, V domains shown)
VH: EVQLLESGGGLVQPGGSLRLSCAASGFTFSSYWMSWVRQAPGKGLEWVSSISGRGDNTYYADSVKGRFTISRDNSKNTLYLQMNSLRAEDTAVYYCARASGSGYYYYYGMDVWGQGTTVTVSS
VL: B2 VL with W24Q, G28D, S31N, A34N, N93S, T94A, W96Y, P100G, D105E
B7: scFv G8-P1H08 (scFv, V domains shown)
VH: QVQLVQSGAEVKKPGASVKVSCKASGYTFGNYFMHWVRQAPGQGLEWMGMVNPSGGSETFAQKFQGRVTMTRDTSTSTVYMELSSLRSEDTAVYYCAASTWIQPFDYWGQGTLVTVSS
VL: DIQMTQSPSSLSASVGDRVTITCRASQGINSYLAWYQQKPGKAPKLLIYDASNLETGVPSRFSGSGSGTDFTLTISSLQPEDFATYYCQQHNSYPPTFGQGTKLEIK
B8: scFv G8-P2B05 (scFv, V domains shown)
VH: EVQLLESGGGLVQPGGSLRLSCAASGFDFSIYSMNWVRQAPGKGLEWVSAISGSGGSTYYADSVKGRFTISRDNSKNTLYLQMNSLRAEDTAVYYCASNGNYYGSGSYYNYWGQGTLVTVSS
VL: DIQMTQSPSSLSASVGDRVTITCRASQSISRWLAWYQQKPGKAPKLLIYAASSLQSGVPSRFSGSGSGTDFTLTISSLQPEDFATYYCQQYSTYPITIGQGTKVEIK
B9: scFv G8-P2E06 (scFv, V domains shown)
VH: QVQLVQSGAEVKKPGASVKVSCKASGYTLTTYYMHWVRQAPGQGLEWMGWINPNSGGTNYAQKFQGRVTMTRDTSTSTVYMELSSLRSEDTAVYYCARAVYYDFWSGPFDYWGQGTLVTVSS
VL: B3 VL with A28G, T53S, G89Q, S91A, Y92N, T94F, P96W
B10: scFv R3G8-P2C10 (scFv, V domains shown)
VH: QVQLVQSGAEVKKPGASVKVSCKASGYTFTSYYMHWVRQAPGQGLEWMGWINPYSGGTNYAQKFQGRVTMTRDTSTSTVYMELSSLRSEDTAVYYCAKGGIYYGSGSYPSWGQGTLVTVSS
VL: B3 VL with A28D, I29V, N31T, S32W, T53S, G89Q, Y92H, P96Q, L104V
B11: scFv R3G8-P2E04 (scFv, V domains shown)
VH: QVQLVQSGAEVKKPGSSVKVSCKASGGTFSSYGVSWVRQAPGQGLEWMGWISPYSGNTDYAQKFQGRVTITADESTSTAYMELSSLRSEDTAVYYCARGLYYMDVWGKGTTVTVSS
VL: B7 VL with G28S, N30S, Y32W, H91S, N92Y, Y94T, P96L, Q100G
B12: scFv R3G8-P4F05 (scFv, V domains shown)
VH: QVQLVQSGAEVKKPGASVKVSCKASGYTFSNMYLHWVRQAPGQGLEWMGWINPNTGDTNYAQTFQGRVTMTRDTSTSTVYMELSSLRSEDTAVYYCARGLYGDYFLYYGMDVWGQGTKVTVSS
VL: B3 VL with A28G, S32Y, G89Q, P96L, Q100G, L104V
B13: scFv R3G8-P5C03 (scFv, V domains shown)
VH: QVQLVQSGAEVKKPGASVKVSCKASGYTFTSYYMHWVRQAPGQGLEWMGWMNPNSGNTGYAQKFQGRVTMTRDTSTSTVYMELSSLRSEDTAVYYCARGLLGFGEFLTYGMDVWGQGTLVTVSS
VL: B3 VL with A28G, S32W, G89Q, S91T, P96W
B14: scFv R3G8-P5F02 (scFv, V domains shown)
VH: QVQLVQSGAEVKKPGASVKVSCKASGYTFTGYYIHWVRQAPGQGLEWMGVINPSGGSTTYAQKLQGRVTMTRDTSTSTVYMELSSLRSEDTAVYYCARDRDSSWTYYYYGMDVWGQGTTVTVSS
VL: EIVMTQSPATLSVSPGERATLSCRASQSVGNSLAWYQQKPGQAPRLLIYGASTRATGIPARFSGSGSGTEFTLTISSLQSEDFAVYYCQQYGSSPYTFGQGTKVEIK
B15: scFv R3G8-P5G08 (scFv, V domains shown)
VH: B12 VH with S30T, N31S, M32N, L34M, I51M, T55S, D57N, N59G, T63K, K118T
VL: not shown
B16: scFv G8-P1C01 (scFv, V domains shown)
VH: QVQLVQSGAEVKKPGASVKVSCKASGGTFSSHAISWVRQAPGQGLEWMGVIIPSGGTSYTQKFQGRVTMTRDTSTSTVYMELSSLRSEDTAVYYCARGDYYDSSGYYFPVYFDYWGQGTLVTVSS
VL: B7 VL with G28N, N30Y, S31T, A34N, H91A, S93G, Y94F, P96L, Q100G, L104V
B17: scFv G8-P2C11 (scFv, V domains shown)
VH: QVQLVQSGAEVKKPGASVKVSCKASGYTFTSYAMNWVRQAPGQGLEWMGWINPNSGGTNYAQKFQGRVTMTRDTSTSTVYMELSSLRSEDTAVYYCARDPFWSGHYYYYGMDVWGQGTTVTVSS
VL: not shown
B18: scFv R3G10-P1A07 (scFv, V domains shown)
VH: EVQLLESGGGLVKPGGSLRLSCAASGFTFSSYWMSWVRQAPGKGLEWVSGISARSGRTYYADSVKGRFTISRDDSKNTLYLQMNSLKTEDTAVYYCARDQDTIFGVVITWFDPWGQGTLVTVSS
VL: B3 VL with A28G, S32Y, T53S, S56G, G89Q, S91Y, Y92F, S93T, P96Y
B19: scFv R3G10-P1B07 (scFv, V domains shown)
VH: QVQLVQSGAEVKKPGASVKVSCKASGYTFTSYYMHWVRQAPGQGLEWMGIIHPGGGTTSYAQKFQGRVTMTRDTSTSTVYMELSSLRSEDTAVYYCARDKVYGDGFDPWGQGTLVTVSS
VL: B8 VL with Y49F, A50D, S53R, Y91A, S92E, T93A, Y94F, I96Y, I98F
B20: scFv R3G10-P1E12 (scFv, V domains shown)
VH: QVQLVQSGAEVKKPGASVKVSCKASGYIFTGYYMHWVRQAPGQGLEWMGMIGPSDGSTSYAQKFQGRVTMTRDTSTSTVYMELSSLRSEDTAVYYCAREDDSMDVWGKGTTVTVSS
VL: not shown
B21: scFv R3G10-P4E12 (scFv, V domains shown)
VH: B20 VH with I28T, K63R, D100E, S102G, K108Q
VL: B7 VL with N30S, S31T, N53S, E55Q, T56S, H91Y, N92Y, P96W, K103R
B22: scFv R3G10-P1F06 (scFv, V domains shown)
VH: B20 VH with I28T, T30I, E99D, D100S, D101S, S102G, M103L, V105P, K108Q, T111L
VL: B3 VL with A28S, S32Y, A34N, A50K, T53S, Q55E, G89Q, S93I, T94I, P96Y
B23: scFv R3G10-P1H01 (scFv, V domains shown)
VH: B20 VH with I28T, E99G, D100V, D101G, S102N, M103L, V105Y, K108Q, T111L
VL: B3 VL with A28S, S32Y, A34N, T53S, G89H, S91T, P96L, L104V
B24: scFv R3G10-P1H08 (scFv, V domains shown)
VH: QVQLVQSGAEVKKPGASVKVSCKASGVTFSTSAISWVRQAPGQGLEWMGWISPYNGNTDYAQMLQGRVTMTRDTSTSTVYMELSSLRSEDTAVYYCARDAHQYYDFWSGYYSGTYYYGMDVWGQGTTVTVSS
VL: B3 VL with A28G, S32Y, A50S, T53N, G89Q, S91A, T94F, P96W, L104V

How the values were obtained:
[1] = target: T1, HLA-A*02:01_… (HLA-PEPTIDE target G8), recombinant soluble complex (human, UniProt P04439 25-297 at identity 0.94); P61769 21-119, enzymatically biotinylated (BirA) for screening and functional assays); assay: scFv PPE ELISA
T1 construct: Also crystallised with Fab G8-P1C11

[2] = target: HLA-A*01:01_… (HLA-PEPTIDE target G10), recombinant soluble complex (human, UniProt P04439-2 25-297; P61769 21-119, enzymatically biotinylated (BirA) for screening and functional assays); assay: scFv PPE ELISA

Binder	fold binding to target pHLA over minipool of negative control pHLAs [1] [fold]	fold binding to target pHLA over minipool of negative control pHLAs [2] [fold]
B1	≥ 3	
B2	≥ 3	
B3	≥ 3	
B4	≥ 3	
B5	≥ 3	
B6	≥ 3	
B7	≥ 3	
B8	≥ 3	
B9	≥ 3	
B10	≥ 3	
B11	≥ 3	
B12	≥ 3	
B13	≥ 3	
B14	≥ 3	
B15	≥ 3	
B16	≥ 3	
B17	≥ 3	
B18		≥ 3
B19		≥ 3
B20		≥ 3
B21		≥ 3
B22		≥ 3
B23		≥ 3
B24		≥ 3
